Assay results: patent US20070219354

Biological target: T1, coumarin-CO-REVNFEVEFR
T1 chain: REVNFEVEFR

B1: BACE 1, soluble (transmembrane domain and cytoplasmic extension excluded) human protein produced in a baculovirus expression system (protein)
chain: TQHGIRLPLRSGLGGAPLGLRLPRETDEEPEEPGRRGSFVEMVDNLRGKSGQGYYVEMTVGSPPQTLNILVDTGSSNFAVGAAPHPFLHRYYQRQLSSTYRDLRKGVYVPYTQGKWEGELGTDLVSIPHGPNVTVRANIAAITESDKFFINGSNWEGILGLAYAEIARPDDSLEPFFDSLVKQTHVPNLFSLQLCGAGFPLNQSEVLASVGGSMIIGGIDHSLYTGSLWYTPIRREWYYEVIIVRVEINGQDLKMDCKEYNYDKSIVDSGTTNLRLPKKVFEAAVKSIKAASSTEKFPDGFWLGEQLVCWQAGTTPWNIFPVISLYLMGEVTNQSFRITILPQQYLRPVEDVATSQDDCYKFAISQSSTGTVMGAVIMEGFYVVFDRARKRIGFAVSACHVHDEFRTAAVEGPFVTLDMEDCGYNIPQTDESTLMT
- substrate processed (end point HPLC assay, 2 nM enzyme, 1.0 µM substrate, 30 min): less than 10% of substrate is processed by BACE 1
